From article PMC13419597, “An Acetylation-Primed SUMOylation Switch Controls RORβ Stability through a p300-SIRT1 Regulatory Axis” (Research Square, 2024)

Target: T1, His-HA-RORβ (isoform 1) (human, UniProt Q92753-1 1-459)
T1 construct: Retinoic acid receptor-related orphan receptor beta (RORβ), human, isoform 1 (RORβ1); the printed residue numbers (K11 to K459 at the C-terminus of the LBD) fit the 459-residue form; Same plasmid used in TC28a2 (RIME) and HEK293T (co-IP, IP-MS); also called HA-tagged RORβ; RORβ WT; source: TC28a2 or HEK293T, transiently transfected (pCMV6), in lysate
T1 sequence (looked up): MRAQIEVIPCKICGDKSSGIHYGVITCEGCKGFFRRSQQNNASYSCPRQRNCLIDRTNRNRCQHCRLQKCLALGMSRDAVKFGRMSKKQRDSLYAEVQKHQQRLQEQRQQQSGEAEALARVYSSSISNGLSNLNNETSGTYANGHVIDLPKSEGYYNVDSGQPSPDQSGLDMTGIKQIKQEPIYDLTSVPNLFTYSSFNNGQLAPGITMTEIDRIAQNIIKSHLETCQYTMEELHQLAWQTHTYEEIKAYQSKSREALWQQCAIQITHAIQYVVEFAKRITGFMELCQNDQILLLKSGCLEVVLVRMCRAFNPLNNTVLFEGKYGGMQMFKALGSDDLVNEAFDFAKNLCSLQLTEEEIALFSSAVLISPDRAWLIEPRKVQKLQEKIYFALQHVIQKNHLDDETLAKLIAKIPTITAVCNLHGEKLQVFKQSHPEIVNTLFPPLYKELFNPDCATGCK
Experiment: affinity purification with mass spectrometry; RIME: HA-RORβ transfected in TC28a2 chondrocytes, 1% formaldehyde crosslinking in cells, nuclear lysate, anti-HA magnetic beads, HA-peptide-blocked control; also with SIRT1 activator SRT2104 against DMSO
Conditions: partners not purified

B1: PIAS1, endogenous in TC28a2 (enzyme, human (endogenous in TC28a2), UniProt O75925 1-651, looked up)
chain: MADSAELKQMVMSLRVSELQVLLGYAGRNKHGRKHELLTKALHLLKAGCSPAVQMKIKELYRRRFPQKIMTPADLSIPNVHSSPMPATLSPSTIPQLTYDGHPASSPLLPVSLLGPKHELELPHLTSALHPVHPDIKLQKLPFYDLLDELIKPTSLASDNSQRFRETCFAFALTPQQVQQISSSMDISGTKCDFTVQVQLRFCLSETSCPQEDHFPPNLCVKVNTKPCSLPGYLPPTKNGVEPKRPSRPINITSLVRLSTTVPNTIVVSWTAEIGRNYSMAVYLVKQLSSTVLLQRLRAKGIRNPDHSRALIKEKLTADPDSEIATTSLRVSLLCPLGKMRLTIPCRALTCSHLQCFDATLYIQMNEKKPTWVCPVCDKKAPYEHLIIDGLFMEILKYCTDCDEIQFKEDGTWAPMRSKKEVQEVSASYNGVDGCLSSTLEHQVASHHQSSNKNKKVEVIDLTIDSSSDEEEEEPSAKRTCPSLSPTSPLNNKGILSLPHQASPVSRTPSLPAVDTSYINTSLIQDYRHPFHMTPMPYDLQGLDFFPFLSGDNQHYNTSLLAAAAAAVSDDQDLLHSSRFFPYTSSQMFLDQLSAGGSTSLPTTNGSSSGSNSSLVSSNSLRESHSHTVTNRSSTDTASIFGIIPDIISLD
notes: E3 SUMO-protein ligase PIAS1, endogenous in TC28a2 human chondrocytes; source: endogenous, TC28a2 nuclear lysate
Question: How did the “log2 fold change of PIAS1 in RORβ immunoprecipitates, SRT2104 against DMSO” value turn out when B1 was run?
Answer: ~-0.4 log2 fold change (SRT2104/DMSO)
